Measurements from article PMC3510032.

Tests used:
[1] = target: Shep (endogenous, embryo nuclear extract) (Drosophila (endogenous in embryos)) (UniProt Q8MSV2); assay: co-IP; embryo nuclear extracts in HBSMT, α-Shep or pre-immune serum pre-conjugated to protein A sepharose, 1 h at 4°C; Western blotting
[2] = target: GST-Shep isoform A (Drosophila (Oregon R)); assay: pull-down; 2 µg GST or GST fusion protein immobilised on Glutathione-Agarose, 35 µg soluble His-Mod(mdg4)2.2 in 350 µL PBSMT (137 mM NaCl, 250 mM MgCl2, 0.3% Triton X-100, 1 mM DTT, 100 mg/mL BSA), 4°C, 2 h, 5 washes; bound protein detected by Western blotting
[3] = target: GST-Shep isoform B/D (Drosophila (Oregon R)); assay: as above
[4] = target: GST-Shep isoform E (Drosophila (Oregon R)); assay: as above
[5] = target: GST-Shep isoform A (Drosophila (Oregon R)); assay: pull-down; GST or GST fusion protein immobilised on Glutathione-Agarose, soluble His-Su(Hw) in HBSM (50 mM HEPES pH 6.7, 150 mM NaCl, 5 mM KCl, 2.5 mM MgCl2) with 0.3% Triton-X 100, 0.2 M KCl, 1 mM DTT, 100 mg/mL BSA, 4°C, 2 h; bound protein detected by Western blotting
[6] = target: GST-Shep isoform B/D (Drosophila (Oregon R)); assay: as above
[7] = target: GST-Shep isoform E (Drosophila (Oregon R)); assay: as above

“Mod(mdg4)2.2 (endogenous, embryo nuclear extract) (natural protein)” gave a percent of total recovered in the IP [1] of 0.1%.

Molecule His-Mod(mdg4)2.2 (natural protein) has a stoichiometry N [2] of 1 molar ratio, a stoichiometry N [3] of 1 molar ratio and a stoichiometry N [4] of 1 molar ratio.

B1: His-Su(Hw) (natural protein)
chain: MSASKEGKEKKGKLLGVENISPPKDKRPATRMKLLNDVGAGEDSEASTTTTTSRTPSNKQEKRGSVAGSRIKILNEEILGTPKTEKRGATKSTAPAASTVKILNEKKTPSATVTAVETTKIKTSPSKRKKMEHYVLQAVKSENTKADTTVTVVTEEDDTIDFILADDEEVVPGRIENNNGQEIVVTEDDEDLGEDGDEDGEDSSGKGNSSQTKIKEIVEHVCGKCYKTFRRVQSLKKHLEFCRYDSGYHLRKADMLKNLEKIEKDAVVMEKKDICFCCSESYDTFHLGHINCPDCPKSFKTQTSYERHIFITHSEFSDFPCSICNANLRSEALLALHEEQHKSRGKPYACKICGKDFTRSYHLKRHQKYSSCSSNETDTMSCKVCDRVFYRLDNLRSHLKQHLGTQVVKKPEYMCHTCKNCFYSLSTLNIHIRTHTGEKPFDCDLCDKKFSALVALKKHRRYHTGEKPYSCTVCNQAFAVKEVLNRHMKRHTGERPHKCDECGKSFIQATQLRTHSKTHIRPFPCEQCDEKFKTEKQLERHVKTHSRTKRPVFSCAECKRNFRTPALLKEHMDEGKHSPKQQRSSMRSAVKIMERTDCAICDKNFDSSDTLRRHIRTVHECDPDDIFGVEPHPSKRAKKDIESEEVVPVALNTSAGSLISSQTDGNGVVVREFLVDEGDGAAQTITLENETYTILPLDGAIEGEQLTDEAGVKPEAKKEEAQVSPVVKKEQRKSLAASLAAAIADNLEESCSEDDFSGEILTEEDIKLKENVGKLIDMLVDPPILKKYGWPNAPEETVLCKVIENCGHDLTKGGENYAELDYGSRMREYCKLLFTVVIHNDSIKSLLNNFPIDDVIEYVLGDEDQDEGGLDKDNESHSGDEEAVSVTGETKTNEIREKPEKKEVSAKSEKKEIVGKAVDKDNSEEVVRENKKKPVGEQEKA
With B1 the stoichiometry N [5] was 1 molar ratio, the stoichiometry N [6] was 1 molar ratio and the stoichiometry N [7] was 1 molar ratio.
